Laboratory results reported in US20250289897A1, “LEPTIN RECEPTOR AGONISTIC ANTIBODY AS MONO OR COMBO THERAPIES TO TREAT OBESITY” (ELI LILLY AND COMPANY, priority 2024, published 2025).

Experiments:
[1] = biological target: neonatal Fc receptor (FcRn) on FcRn Affinity Column Gen2 (Roche, Cat #09430857001) (UniProt P55899); test: FcRn-HPLC (Roche FcRn Affinity Column Gen2), pH gradient 5.5 to 8.8 over 90 minutes
[2] = biological target: human FcγRIIA_131R (CD32a) extracellular domain (human) (UniProt P12318); test: SPR at 25 C (Biacore T200), antibody captured on Protein A chip, FcγR ECD as analyte, steady state; average of 3, SD 0.01
[3] = biological target: human FcγRIIA_131H (CD32a) extracellular domain (human) (UniProt P12318); test: as above
[4] = biological target: human FcγRIIIA_158F (CD16a) extracellular domain (human) (UniProt P08637); test: SPR at 25 C (Biacore T200), antibody captured on Protein A chip, FcγR ECD as analyte, steady state; average of 3, SD 0.02
[5] = biological target: human FcγRI (CD64) extracellular domain (human) (UniProt P12314); test: SPR at 25 C (Biacore T200), antibody captured on Protein A chip, FcγR ECD as analyte; average of 3, SD 1.3
[6] = biological target: cynomolgus monkey LEPR, full length, on HEK293-STAT3Luc-cmLepR2 cells (Macaca fascicularis); test: flow cytometry on live HEK293-STAT3Luc-cmLepR2 cells, AF647 anti-human IgG; average of 4 runs
[7] = biological target: human LEPR, full length, on HEK293-STAT3Luc-hLepR1 cells (Homo sapiens) (UniProt P48357); test: flow cytometry on live HEK293-STAT3Luc-hLepR1 cells, AF647 anti-human IgG; average of 4 runs, SD 331, R^2 0.50
[8] = biological target: human LEPR, full length, on HEK293-STAT3Luc-hLepR1 cells (Homo sapiens) (UniProt P48357); test: cell-based or functional assay
[9] = biological target: cynomolgus monkey LEPR, full length, on HEK293-STAT3Luc-cmLepR2 cells (Macaca fascicularis); test: flow cytometry on live HEK293-STAT3Luc-cmLepR2 cells, AF647 anti-human IgG; average of 4 runs, SD 0, R^2 0.60
[10] = biological target: human LEPR, full length, on HEK293-STAT3Luc-hLepR1 cells (Homo sapiens) (UniProt P48357); test: flow cytometry on live HEK293-STAT3Luc-hLepR1 cells, AF647 anti-human IgG; average of 4 runs
[11] = biological target: neonatal Fc receptor (FcRn) on FcRn Affinity Column Gen2 (Roche, Cat #09430857001) (UniProt P55899); test: FcRn-HPLC (Roche FcRn Affinity Column Gen2), peak width at 50% peak height
[12] = biological target: Mutant human LEPR-A409E, on HEK293 STAT3-Luciferase reporter cells (human) (UniProt P48357); test: cell-based or functional assay
Sequence of Mutant human LEPR-A409E, on HEK293 STAT3-Luciferase reporter cells (human) (P48357 22-1165 A409E limits assumed): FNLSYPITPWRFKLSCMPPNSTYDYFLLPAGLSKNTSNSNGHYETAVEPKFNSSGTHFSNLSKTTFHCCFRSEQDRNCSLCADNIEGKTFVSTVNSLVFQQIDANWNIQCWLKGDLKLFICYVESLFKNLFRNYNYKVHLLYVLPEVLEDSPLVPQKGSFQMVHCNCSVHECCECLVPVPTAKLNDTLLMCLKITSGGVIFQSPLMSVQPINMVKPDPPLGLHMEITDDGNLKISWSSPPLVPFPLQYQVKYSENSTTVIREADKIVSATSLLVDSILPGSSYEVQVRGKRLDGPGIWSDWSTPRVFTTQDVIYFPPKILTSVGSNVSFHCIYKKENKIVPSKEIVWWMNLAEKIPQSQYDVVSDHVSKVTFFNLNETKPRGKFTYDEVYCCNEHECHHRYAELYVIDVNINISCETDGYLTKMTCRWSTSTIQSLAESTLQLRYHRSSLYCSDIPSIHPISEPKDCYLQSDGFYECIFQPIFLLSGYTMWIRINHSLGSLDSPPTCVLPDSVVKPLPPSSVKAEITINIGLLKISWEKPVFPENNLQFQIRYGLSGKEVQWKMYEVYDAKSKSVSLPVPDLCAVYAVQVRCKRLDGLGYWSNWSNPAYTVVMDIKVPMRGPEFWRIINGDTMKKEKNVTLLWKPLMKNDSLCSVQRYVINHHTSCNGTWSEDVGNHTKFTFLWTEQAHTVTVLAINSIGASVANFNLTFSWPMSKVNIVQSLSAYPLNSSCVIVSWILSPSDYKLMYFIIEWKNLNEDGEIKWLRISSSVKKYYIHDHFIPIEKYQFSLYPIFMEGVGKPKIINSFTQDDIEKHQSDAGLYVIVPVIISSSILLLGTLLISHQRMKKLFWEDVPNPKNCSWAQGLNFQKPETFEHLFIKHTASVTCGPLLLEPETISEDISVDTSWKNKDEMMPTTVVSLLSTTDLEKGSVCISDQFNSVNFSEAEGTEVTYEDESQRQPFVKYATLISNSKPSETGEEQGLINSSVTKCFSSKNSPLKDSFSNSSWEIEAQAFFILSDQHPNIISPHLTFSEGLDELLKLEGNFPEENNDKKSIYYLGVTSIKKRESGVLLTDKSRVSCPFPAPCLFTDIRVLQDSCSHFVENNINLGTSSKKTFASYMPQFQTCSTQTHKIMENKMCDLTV

Sequence of neonatal Fc receptor (FcRn) on FcRn Affinity Column Gen2 (Roche, Cat #09430857001) (P55899 24-297 limits assumed, chain 1 of 2): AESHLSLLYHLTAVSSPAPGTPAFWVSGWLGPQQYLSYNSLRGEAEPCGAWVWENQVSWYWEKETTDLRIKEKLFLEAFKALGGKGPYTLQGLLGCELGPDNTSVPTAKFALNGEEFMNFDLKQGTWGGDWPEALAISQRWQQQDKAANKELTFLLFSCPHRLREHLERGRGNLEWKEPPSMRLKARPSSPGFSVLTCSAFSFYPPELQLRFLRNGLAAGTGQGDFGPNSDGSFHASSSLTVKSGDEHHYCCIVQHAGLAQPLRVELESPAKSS
Sequence of neonatal Fc receptor (FcRn) on FcRn Affinity Column Gen2 (Roche, Cat #09430857001) (P61769 21-119 limits assumed, chain 2 of 2, further chain): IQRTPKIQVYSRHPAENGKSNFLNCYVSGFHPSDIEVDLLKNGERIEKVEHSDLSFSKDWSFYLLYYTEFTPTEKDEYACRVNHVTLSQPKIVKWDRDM
Sequence of human LEPR, full length, on HEK293-STAT3Luc-hLepR1 cells (Homo sapiens) (P48357 22-1165 limits assumed): as the sequence (P48357 22-1165 A409E limits assumed) above, with E388A counted along it
Sequence of human FcγRIIA_131R (CD32a) extracellular domain (human) (P12318 34-217 H167R): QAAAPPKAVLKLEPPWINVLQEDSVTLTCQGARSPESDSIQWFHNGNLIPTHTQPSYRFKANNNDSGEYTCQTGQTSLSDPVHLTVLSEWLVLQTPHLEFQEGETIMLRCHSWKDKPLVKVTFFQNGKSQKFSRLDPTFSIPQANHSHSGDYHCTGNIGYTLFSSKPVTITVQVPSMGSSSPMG
Sequence of human FcγRIIA_131H (CD32a) extracellular domain (human) (P12318 34-217): as the sequence (P12318 34-217 H167R) above, with R134H counted along it
Sequence of human FcγRI (CD64) extracellular domain (human) (P12314 16-292): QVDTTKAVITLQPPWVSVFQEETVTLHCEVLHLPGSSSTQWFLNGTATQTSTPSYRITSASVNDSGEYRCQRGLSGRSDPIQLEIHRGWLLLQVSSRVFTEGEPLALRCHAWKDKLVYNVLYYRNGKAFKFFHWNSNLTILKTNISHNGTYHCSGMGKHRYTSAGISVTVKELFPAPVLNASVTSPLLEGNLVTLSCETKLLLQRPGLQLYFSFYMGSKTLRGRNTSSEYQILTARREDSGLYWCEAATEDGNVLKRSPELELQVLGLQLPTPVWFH
Sequence of human FcγRIIIA_158F (CD16a) extracellular domain (human) (P08637 17-208): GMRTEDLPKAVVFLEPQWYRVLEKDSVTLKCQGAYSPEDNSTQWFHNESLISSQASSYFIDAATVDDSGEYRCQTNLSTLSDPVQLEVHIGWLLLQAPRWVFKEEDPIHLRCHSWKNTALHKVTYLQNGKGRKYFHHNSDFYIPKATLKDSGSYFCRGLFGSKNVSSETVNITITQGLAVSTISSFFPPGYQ

Briakinumab (antibody)
Retention Time [1]: 88.9 min

IgG1 positive control (antibody)
Kd [2]: 530 nM | Kd [3]: 520 nM | Kd [4]: 860 nM | Kd [5]: 0.0619 nM

IgG Isotype control (antibody)
Bottom (gMFI) [6]: 69 gMFI | Top (gMFI) [6]: 131 gMFI | EC50 [7]: 409 nM | Maximum RLU, pERK1/2 AlphaLISA (baseline 29762.5) [8]: 27300 RLU | EC50 [9]: 727 nM | Bottom (gMFI) [10]: 148 gMFI | Top (gMFI) [10]: 293 gMFI

Ustekinumab (antibody)
Peak Width [11]: 1.9 min | Retention Time [1]: 69.4 min

recombinant human leptin protein (SEQ ID NO:27) (from UniProt P41159 22-167) (ligand)
Maximum RLU, pERK1/2 AlphaLISA (baseline 29762.5) [8]: 138000 RLU | Top (RLU), STAT3-luciferase reporter (projected by the fitting software) [12]: 259000 RLU
